The chains are these.
B1: DNA topoisomerase 3-beta-1 (Homo sapiens), O95985 (parent)
chain: MKTVLMVAEKPSLAQSIAKILSRGSLSSHKGLNGACSVHEYTGTFAGQPVRFKMTSVCGHVMTLDFLGKYNKWDKVDPAELFSQAPTEKKEANPKLNMVKFLQVEGRGCDYIVLWLDCDKEGENICFEVLDAVLPVMNKAHGGEKTVFRARFSSITDTDICNAMACLGEPDHNEALSVDARQELDLRIGCAFTRFQTKYFQGKYGDLDSSLISFGPCQTPTLGFCVERHDKIQSFKPETYWVLQAKVNTDKDRSLLLDWDRVRVFDREIAQMFLNMTKLEKEAQVEATSRKEKAKQRPLALNTVEMLRVASSSLGMGPQHAMQTAERLYTQGYISYPRTETTHYPENFDLKGSLRQQANHPYWADTVKRLLAEGINRPRKGHDAGDHPPITPMKSATEAELGGDAWRLYEYITRHFIATVSHDCKYLQSTISFRIGPELFTCSGKTVLSPGFTEVMPWQSVPLEESLPTCQRGDAFPVGEVKMLEKQTNPPDYLTEAELITLMEKHGIGTDASIPVHINNICQRNYVTVESGRRLKPTNLGIVLVHGYYKIDAELVLPTIRSAVEKQLNLIAQGKADYRQVLGHTLDVFKRKFHYFVDSIAGMDELMEVSFSPLAATGKPLSRCGKCHRFMKYIQAKPSRLHCSHCDETYTLPQNGTIKLYKELRCPLDDFELVLWSSGSRGKSYPLCPYCYNHPPFRDMKKGMGCNECTHPSCQHSLSMLGIGQCVECESGVLVLDPTSGPKWKVACNKCNVVAHCFENAHRVRVSADTCSVCEAALLDVDFNKAKSPLPGDETQHMGCVFCDPVFQELVELKHAASCHPMHRGGPGRRQGRGRGRARRPPGKPNPRRPKDKMSALAAYFV
B2: Tudor domain-containing protein 3 (Homo sapiens), Q9H7E2-3 (parent)
chain: MAQVAGAALSQAGWYLSDEGIEACTSSPDKVNVNDIILIALNTDLRTIGKKFLPSDINSGKVEKLEGPCVLQIQKIRNVAAPKDNEESQAAPRMLRLQMTDGHISCTAVEFSYMSKISLNTPPGTKVKLSGIVDIKNGFLLLNDSNTTVLGGEVEHLIEKWELQRSLSKHNRSNIGTEGGPPPFVPFGQKCVSHVQVDSRELDRRKTLQVTMPVKPTNDNDEFEKQRTAAIAEVAKSKETKTFGGGGGGARSNLNMNAAGNRNREVLQKEKSTKSEGKHEGVYRELVDEKALKHITEMGFSKEASRQALMDNGNNLEAALNVLLTSNKQKPVMGPPLRGRGKGRGRIRSEDEEDLGNARPSAPSTLFDFLESKMGTLNVEEPKSQPQQLHQGQYRSSNTEQNGVKDNNHLRHPPRNDTRQPRNEKPPRFQRDSQNSKSVLEGSGLPRNRGSERPSTSSVSEVWAEDRIKCDRPYSRYDRTKDTSYPLGSQHSDGAFKKRDNSMQSRSGKGPSFAEAKENPLPQGSVDYNNQKRGKRESQTSIPDYFYDRKSQTINNEAFSGIKIEKHFNVNTDYQNPVRSNSFIGVPNGEVEMPLKGRRIGPIKPAGPVTAVPCDDKIFYNSGPKRRSGPIKPEKILESSIPMEYAKMWKPGDECFALYWEDNKFYRAEVEALHSSGMTAVVKFIDYGNYEEVLLSNIKPIQTEAWEEEGTYDQTLEFRRGGDGQPRRSTRPTQQFYQPPRARN
partner: B1 chain

In the first assay the parent is B1. As to conditions: with TDRD3, Q9H7E2-3.
In the case of D266A, the “effect of a mutation on the interaction” value is “with no effect”.

The variants in a further assay derive from B2. The conditions noted are these: with top3b_human TOP3B, O95985.
Take R96M;F111Y: the “effect of a mutation on the interaction” value is on record as “with no effect”. On the same count and under the same terms, then V79S, with “with no effect”; and L141S, with “with no effect”. On the same count and under the same terms, then R96M;F139V, with “with no effect”; and R96M;F111Y;F139V, with “with no effect”; and R96M;V109M;F139V, with “with no effect”. On to V79S;A80S;A81S;P82S, for which the “effect of a mutation on the interaction” value was “decreasing interaction strength”. On the same count and under the same terms, then A80S;A81S, with “with no effect”; and V109S;F111S, with “disrupting interaction strength”; and R96M;V109M;F111Y, with “with no effect”. On the same count and under the same terms, then P92S;M94S, with “disrupting interaction strength”; and P82S, with “with no effect”. On to V79S;P82S, for which the “effect of a mutation on the interaction” value was “decreasing interaction strength”. On the same count and under the same terms, the same measure for R96M: “with no effect”.

R96A: the “effect of a mutation on the interaction” value is listed as “with no effect”. The same measure, in the same setting: then F111Y, with “with no effect”; and F111S, with “with no effect”. On the same count and under the same terms, the same measure for V109M: “with no effect”; for V109S: “disrupting interaction strength”. For F139V, the “effect of a mutation on the interaction” value is listed as “with no effect”. On to F139S, for which the “effect of a mutation on the interaction” value was “decreasing interaction strength”. In the case of P92S, the “effect of a mutation on the interaction” value is recorded as “decreasing interaction strength”.

As for V109M;F111Y;F139V, the “effect of a mutation on the interaction” value is given as “with no effect”. Take R96M;V109M;F111Y;F139V: the “effect of a mutation on the interaction” value is recorded as “decreasing interaction strength”. Still for that read-out and setting: the same measure for A80S;A81Q;A90K;A91P;P92S: “with no effect”; for M94S: “disrupting interaction strength”. The same measure, in the same setting: then R96M;V109M, with “with no effect”; and F139S;L141S, with “disrupting interaction strength”.

(Values after IntAct's records for PubMed 28176834.)
